For the assay, the target named is desmoplakin (DP), endogenous (human (endogenous in HEK 293 and SCC9)) (UniProt P15924). The experiment in a line: proximity ligation.
Chain of desmoplakin (DP), endogenous (human (endogenous in HEK 293 and SCC9)) (P15924 whole entry): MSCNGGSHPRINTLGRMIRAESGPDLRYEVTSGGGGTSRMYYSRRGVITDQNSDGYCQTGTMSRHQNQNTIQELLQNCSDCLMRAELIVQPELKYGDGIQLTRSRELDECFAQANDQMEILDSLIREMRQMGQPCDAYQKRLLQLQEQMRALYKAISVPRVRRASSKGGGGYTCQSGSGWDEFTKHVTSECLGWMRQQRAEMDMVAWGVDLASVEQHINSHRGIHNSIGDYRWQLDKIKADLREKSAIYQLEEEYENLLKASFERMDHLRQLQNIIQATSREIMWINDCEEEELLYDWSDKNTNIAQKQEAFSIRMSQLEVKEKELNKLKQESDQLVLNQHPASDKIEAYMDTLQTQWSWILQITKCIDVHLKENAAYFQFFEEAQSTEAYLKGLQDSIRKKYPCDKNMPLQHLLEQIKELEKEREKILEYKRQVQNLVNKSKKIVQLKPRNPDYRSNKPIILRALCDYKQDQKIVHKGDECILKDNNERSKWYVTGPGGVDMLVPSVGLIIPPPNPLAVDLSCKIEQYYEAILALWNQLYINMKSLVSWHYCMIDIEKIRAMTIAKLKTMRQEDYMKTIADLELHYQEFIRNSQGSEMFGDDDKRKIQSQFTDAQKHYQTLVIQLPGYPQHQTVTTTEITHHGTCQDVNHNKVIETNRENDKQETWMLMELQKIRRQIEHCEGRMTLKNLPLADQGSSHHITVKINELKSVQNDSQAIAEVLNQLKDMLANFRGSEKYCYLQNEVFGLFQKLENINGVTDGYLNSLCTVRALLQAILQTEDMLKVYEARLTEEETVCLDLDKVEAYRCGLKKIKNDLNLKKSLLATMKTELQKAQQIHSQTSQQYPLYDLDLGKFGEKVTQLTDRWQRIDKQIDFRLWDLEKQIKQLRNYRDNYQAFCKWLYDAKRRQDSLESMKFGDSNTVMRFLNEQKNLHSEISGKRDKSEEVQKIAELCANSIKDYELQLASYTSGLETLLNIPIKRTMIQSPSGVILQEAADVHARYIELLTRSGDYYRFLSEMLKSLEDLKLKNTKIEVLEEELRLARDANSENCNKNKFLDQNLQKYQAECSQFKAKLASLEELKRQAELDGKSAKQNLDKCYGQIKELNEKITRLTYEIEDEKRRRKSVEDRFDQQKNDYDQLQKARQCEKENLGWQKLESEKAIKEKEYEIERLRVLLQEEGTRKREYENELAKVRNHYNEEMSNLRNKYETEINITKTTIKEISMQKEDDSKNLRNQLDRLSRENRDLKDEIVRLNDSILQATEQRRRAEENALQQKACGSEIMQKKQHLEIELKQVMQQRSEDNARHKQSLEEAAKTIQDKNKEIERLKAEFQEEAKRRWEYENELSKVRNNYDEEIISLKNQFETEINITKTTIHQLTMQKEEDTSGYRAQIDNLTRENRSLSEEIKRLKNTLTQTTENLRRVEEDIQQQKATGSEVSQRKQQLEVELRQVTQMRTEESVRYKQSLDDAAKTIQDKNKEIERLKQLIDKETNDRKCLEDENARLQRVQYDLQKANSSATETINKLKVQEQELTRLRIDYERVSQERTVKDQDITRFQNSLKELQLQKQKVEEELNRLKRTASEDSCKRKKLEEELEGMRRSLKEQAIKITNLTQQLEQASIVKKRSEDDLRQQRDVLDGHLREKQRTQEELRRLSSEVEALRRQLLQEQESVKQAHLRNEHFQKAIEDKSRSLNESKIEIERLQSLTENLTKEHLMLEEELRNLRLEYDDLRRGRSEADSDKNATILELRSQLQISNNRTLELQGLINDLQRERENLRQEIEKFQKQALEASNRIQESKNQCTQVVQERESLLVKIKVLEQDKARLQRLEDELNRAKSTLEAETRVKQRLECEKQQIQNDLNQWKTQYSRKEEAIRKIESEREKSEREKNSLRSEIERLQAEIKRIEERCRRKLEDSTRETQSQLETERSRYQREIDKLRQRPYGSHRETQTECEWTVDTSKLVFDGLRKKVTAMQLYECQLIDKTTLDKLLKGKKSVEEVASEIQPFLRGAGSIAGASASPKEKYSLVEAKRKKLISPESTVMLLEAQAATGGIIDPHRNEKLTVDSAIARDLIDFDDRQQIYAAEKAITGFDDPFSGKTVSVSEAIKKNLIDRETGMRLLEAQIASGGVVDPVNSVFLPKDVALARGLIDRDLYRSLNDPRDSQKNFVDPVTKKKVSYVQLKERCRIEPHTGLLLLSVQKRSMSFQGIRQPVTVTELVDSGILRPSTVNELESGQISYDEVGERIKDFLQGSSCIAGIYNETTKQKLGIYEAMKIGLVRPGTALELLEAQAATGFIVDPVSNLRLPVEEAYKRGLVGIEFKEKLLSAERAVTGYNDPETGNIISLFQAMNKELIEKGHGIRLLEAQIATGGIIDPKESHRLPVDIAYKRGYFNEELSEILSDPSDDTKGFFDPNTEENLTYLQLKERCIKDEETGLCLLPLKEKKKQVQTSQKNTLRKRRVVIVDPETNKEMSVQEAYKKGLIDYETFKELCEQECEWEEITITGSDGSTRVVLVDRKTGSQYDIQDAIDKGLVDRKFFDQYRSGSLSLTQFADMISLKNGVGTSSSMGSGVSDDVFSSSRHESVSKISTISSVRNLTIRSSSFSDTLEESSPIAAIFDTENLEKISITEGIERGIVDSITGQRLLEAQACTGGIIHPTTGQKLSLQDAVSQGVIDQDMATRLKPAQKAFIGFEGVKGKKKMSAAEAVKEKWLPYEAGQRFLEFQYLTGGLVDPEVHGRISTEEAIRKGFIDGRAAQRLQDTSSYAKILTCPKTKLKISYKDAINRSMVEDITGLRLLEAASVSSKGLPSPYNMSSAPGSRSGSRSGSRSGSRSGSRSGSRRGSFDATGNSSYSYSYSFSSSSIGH

Chain of GSK3, endogenous in SCC9 cells (P49841 whole entry): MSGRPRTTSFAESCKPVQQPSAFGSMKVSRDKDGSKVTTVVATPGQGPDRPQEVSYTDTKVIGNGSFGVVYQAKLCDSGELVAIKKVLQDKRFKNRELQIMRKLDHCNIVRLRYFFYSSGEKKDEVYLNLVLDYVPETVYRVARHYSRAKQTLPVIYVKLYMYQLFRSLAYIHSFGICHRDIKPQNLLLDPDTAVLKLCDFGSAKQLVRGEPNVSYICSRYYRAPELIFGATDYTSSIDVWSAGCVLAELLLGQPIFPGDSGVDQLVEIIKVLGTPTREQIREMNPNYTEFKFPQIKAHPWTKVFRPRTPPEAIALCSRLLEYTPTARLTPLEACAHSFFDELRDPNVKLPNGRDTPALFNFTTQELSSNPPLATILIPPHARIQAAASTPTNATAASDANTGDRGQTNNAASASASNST

Substance “GSK3, endogenous in SCC9 cells (from UniProt P49841 1-420) (enzyme)” displayed a PLA fluorescent dots, fold over negative control antibody pairings of 20 fold.

The record behind these values is PMC4347645.
